Laboratory results as given in US20250296995A1 (GlaxoSmithKline, published 2025).
Residue numbers refer to the chain shown, from its start. “And” between values parts separate entries of the source, which are not always exact repeats. Identical values can stand only once.

Key:
[1] = target: T1, recombinant Plasmodium falciparum circumsporozoite protein (CSP) (Plasmodium falciparum, UniProt Q7K740 21-375); assay: SPR, recombinant CSP
T1 construct: also called recombinant CSP

[2] = target: T1, recombinant Plasmodium falciparum …; assay: binding affinity column of the in vivo table (SPR, CSP)
[3] = target: recombinant Plasmodium falciparum circumsporozoite protein (CSP) (Plasmodium falciparum, UniProt P19597 21-375); assay: cell-based or functional assay
Target sequence in this assay (P19597 21-375 limits assumed): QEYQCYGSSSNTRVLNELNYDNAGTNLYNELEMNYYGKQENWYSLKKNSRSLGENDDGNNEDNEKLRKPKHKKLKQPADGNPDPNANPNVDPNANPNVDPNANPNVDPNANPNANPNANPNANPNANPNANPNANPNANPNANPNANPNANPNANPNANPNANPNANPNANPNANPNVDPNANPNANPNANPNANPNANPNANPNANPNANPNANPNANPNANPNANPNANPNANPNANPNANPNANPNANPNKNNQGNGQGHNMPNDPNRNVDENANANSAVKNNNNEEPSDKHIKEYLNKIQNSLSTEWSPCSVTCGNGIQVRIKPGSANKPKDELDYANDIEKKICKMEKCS

[4] = target: T2, recombinant CNTNAP2 protein (human, UniProt Q9UHC6 28-1262); assay: SPR with recombinant protein
T2 sequence (looked up): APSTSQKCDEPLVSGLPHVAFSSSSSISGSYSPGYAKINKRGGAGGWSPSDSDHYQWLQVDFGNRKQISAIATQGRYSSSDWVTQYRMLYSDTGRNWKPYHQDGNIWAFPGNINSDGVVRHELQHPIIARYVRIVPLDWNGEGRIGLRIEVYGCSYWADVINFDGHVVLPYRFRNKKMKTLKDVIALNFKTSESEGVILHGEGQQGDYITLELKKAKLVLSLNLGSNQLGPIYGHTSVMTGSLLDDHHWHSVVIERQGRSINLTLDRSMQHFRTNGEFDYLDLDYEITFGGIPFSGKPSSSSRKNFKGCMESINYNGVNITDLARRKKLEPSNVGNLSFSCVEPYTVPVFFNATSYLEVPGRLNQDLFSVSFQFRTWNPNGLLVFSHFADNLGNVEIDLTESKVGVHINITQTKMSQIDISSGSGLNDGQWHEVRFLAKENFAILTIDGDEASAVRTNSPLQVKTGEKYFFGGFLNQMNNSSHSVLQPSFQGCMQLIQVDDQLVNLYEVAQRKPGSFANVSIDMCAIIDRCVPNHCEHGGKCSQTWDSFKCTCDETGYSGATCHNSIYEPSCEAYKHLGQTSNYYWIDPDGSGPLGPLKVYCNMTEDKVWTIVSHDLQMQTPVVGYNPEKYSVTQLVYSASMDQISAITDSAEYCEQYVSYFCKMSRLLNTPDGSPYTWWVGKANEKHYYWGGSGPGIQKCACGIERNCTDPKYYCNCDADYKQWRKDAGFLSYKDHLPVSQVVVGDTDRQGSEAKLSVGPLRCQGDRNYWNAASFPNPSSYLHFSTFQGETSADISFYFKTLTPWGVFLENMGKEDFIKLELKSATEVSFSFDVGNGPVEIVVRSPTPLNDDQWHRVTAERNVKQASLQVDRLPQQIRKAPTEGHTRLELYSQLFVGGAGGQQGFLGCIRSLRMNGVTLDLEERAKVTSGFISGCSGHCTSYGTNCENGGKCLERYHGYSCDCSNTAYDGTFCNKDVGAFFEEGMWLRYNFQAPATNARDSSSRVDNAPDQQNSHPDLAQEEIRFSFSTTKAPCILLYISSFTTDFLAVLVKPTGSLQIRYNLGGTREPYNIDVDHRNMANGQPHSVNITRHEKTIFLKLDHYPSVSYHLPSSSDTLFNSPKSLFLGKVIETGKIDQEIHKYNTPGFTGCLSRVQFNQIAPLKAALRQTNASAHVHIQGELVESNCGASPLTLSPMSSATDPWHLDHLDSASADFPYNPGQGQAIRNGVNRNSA

human FcγRIIa (H131) = target: T3, human FcγRIIa (H131) (human, UniProt P12318 36-218); assay: SPR, human FcγR
T3 construct: also called hFcγRIIaH
T3 sequence (looked up): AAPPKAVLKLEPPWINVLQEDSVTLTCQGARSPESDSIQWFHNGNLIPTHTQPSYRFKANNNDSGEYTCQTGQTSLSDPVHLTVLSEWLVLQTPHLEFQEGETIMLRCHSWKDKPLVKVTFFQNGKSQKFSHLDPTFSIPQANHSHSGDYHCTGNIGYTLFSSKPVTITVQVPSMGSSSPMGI
Excerpt: (§1) A human IgG1 antibody in both WT and Fc silenced (LAGA) formats were included as negative control.

human FcγRIIb = target: T4, human FcγRIIb (human, UniProt P31994 43-217); assay: SPR, human FcγR
T4 construct: also called hFcγRIIb
T4 sequence (looked up): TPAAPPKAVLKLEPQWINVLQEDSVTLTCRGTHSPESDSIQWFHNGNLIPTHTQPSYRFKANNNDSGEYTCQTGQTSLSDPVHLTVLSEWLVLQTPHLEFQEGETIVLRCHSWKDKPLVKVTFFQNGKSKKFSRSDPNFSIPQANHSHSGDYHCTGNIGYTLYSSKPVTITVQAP
Excerpt: as §1

human FcγRIIa (R131) = target: T5, human FcγRIIa (R131) (human, UniProt P12318 36-218); assay: SPR, human FcγR
T5 construct: also called hFcγRIIaR
T5 sequence (looked up): T3 sequence (looked up) with H132R
Excerpt: as §1

human FcγRIIIa (V158) = target: T6, human FcγRIIIa (V158) (human, UniProt P08637 17-208); assay: SPR, human FcγR
T6 construct: also called hFcγRIIIaV
Excerpt: as §1

human FcγRI = target: T7, human FcγRI (human, UniProt P12314 16-288); assay: SPR, human FcγR
T7 construct: also called hFcγRI; CD64
Excerpt: as §1

human FcγRIIIa (F158) = target: T8, human FcγRIIIa (F158) (human, UniProt P08637 17-208); assay: SPR, human FcγR
T8 construct: also called hFcγRIIIaF
Excerpt: as §1

[5] = target: T9, recombinant Plasmodium falciparum circumsporozoite protein (CSP) (Plasmodium falciparum, UniProt P19597 21-375); assay: cell-based or functional assay; remark: listed apart in the source
T9 sequence (P19597 21-375 limits assumed): as the sequence (P19597 21-375 limits assumed) above

[6] = target: T9, recombinant Plasmodium falciparum …; assay: SPR, recombinant CSP; n=1
[7] = target: T9, recombinant Plasmodium falciparum …; assay: SPR, recombinant CSP; geometric mean, n=3
[8] = target: T9, recombinant Plasmodium falciparum …; assay: cell-based or functional assay; remark: listed apart in the source
human FcRn = target: T10, human FcRn (human, UniProt P55899 24-297; P61769 21-119); assay: SPR, human FcRn, pH 6.0
T10 construct: also called neonatal Fc receptor

[9] = target: T9, recombinant Plasmodium falciparum …; assay: cell-based or functional assay; remark: listed apart in the source
[10] = target: T11, recombinant SPOCK1 protein (human, UniProt Q08629 22-439); assay: SPR with recombinant protein
T11 sequence (looked up): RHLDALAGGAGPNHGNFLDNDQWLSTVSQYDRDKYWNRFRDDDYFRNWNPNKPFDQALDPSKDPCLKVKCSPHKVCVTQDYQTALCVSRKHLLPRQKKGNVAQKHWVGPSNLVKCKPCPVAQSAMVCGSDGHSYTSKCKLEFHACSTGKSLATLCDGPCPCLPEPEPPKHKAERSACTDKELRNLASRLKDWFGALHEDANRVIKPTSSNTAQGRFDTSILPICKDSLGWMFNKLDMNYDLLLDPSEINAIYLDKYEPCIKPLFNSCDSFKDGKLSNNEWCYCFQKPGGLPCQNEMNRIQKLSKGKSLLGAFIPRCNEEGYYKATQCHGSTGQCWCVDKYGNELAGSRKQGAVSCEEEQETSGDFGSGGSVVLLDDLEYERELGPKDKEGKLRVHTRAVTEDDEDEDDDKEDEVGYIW

T1 sequence (Q7K740 21-375 limits assumed): as the sequence (P19597 21-375 limits assumed) above
T8 sequence (P08637 17-208 limits assumed): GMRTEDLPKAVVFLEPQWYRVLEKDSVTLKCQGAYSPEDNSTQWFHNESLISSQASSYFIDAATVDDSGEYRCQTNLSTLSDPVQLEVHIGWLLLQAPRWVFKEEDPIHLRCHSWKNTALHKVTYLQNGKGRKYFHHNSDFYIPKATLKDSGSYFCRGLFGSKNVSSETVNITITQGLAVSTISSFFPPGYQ
T7 sequence (P12314 16-288 limits assumed): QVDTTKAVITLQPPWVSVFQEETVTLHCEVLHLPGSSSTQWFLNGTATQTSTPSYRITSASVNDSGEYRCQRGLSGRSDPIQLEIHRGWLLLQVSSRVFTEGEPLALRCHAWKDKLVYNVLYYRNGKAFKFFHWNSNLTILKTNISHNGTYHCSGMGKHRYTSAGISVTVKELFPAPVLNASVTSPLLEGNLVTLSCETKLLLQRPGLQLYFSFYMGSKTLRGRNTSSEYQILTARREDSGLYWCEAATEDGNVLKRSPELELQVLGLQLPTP
T6 sequence (P08637 17-208 F176V limits assumed): as the sequence (P08637 17-208 limits assumed) above, with F160V counted along it
T10 sequence (P55899 24-297 limits assumed, form in doubt, chain 1 of 2): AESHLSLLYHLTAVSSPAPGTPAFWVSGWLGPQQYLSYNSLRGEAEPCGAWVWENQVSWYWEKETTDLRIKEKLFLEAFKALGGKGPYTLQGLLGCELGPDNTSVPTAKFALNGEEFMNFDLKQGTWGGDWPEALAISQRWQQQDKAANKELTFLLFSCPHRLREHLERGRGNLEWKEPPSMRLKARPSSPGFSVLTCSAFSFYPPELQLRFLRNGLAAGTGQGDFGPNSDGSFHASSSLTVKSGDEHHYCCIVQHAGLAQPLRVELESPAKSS
T10 sequence (P61769 21-119 limits assumed, form in doubt, chain 2 of 2): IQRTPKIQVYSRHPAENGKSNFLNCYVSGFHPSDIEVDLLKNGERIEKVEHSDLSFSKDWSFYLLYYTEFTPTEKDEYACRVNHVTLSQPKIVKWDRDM

B1: AB001480 (antibody, V domains shown)
VH: QVQLVESGGGVVQPGRSLRLSCAASGFTFSFYGMHWVRQAPGKGLEWVAVIWYDGSNKYYADSVRGRFTISRDNSKNTLYLQMNSLRAEDTAVYYCARVGNDYDDHGSALDMWGQGTMVTVSS
VL: DIQMTQSPSTLSASVGDRVTITCRASQSISSWLAWYQQKPGKAPKLLIYRASSLESGVPPRFSGSGSGTEFTLTISSLQPDDFGIYYCQQYNSRWTFGQGTKVEIK
Kd [1]: 1.17 nM and 1.18 nM | koff [1]: 0.000659 s⁻¹ | kon [1]: 561000 M⁻¹ s⁻¹ | Kd [2]: 1.18 nM

B2: AB-000356 LS (antibody, V domains shown)
VH: QVQLVESGGGVVQPGRSLRLSCAASGFTFRNFGMHWVRQTPGKGLEWVAVIWHDGSNKFYADSVEGRFTISRDNSKNMIYLQMNSLRVEDTAIYYCARDSLFYDHDNSGYYGYWGQGTLVTVSS
VL: QIVMTQSPATVSVSPGERATLSCRASRSVTSKLAWYQQKPGQAPRLLIYGASTRATGIPARFSGSGSGTEFTLTISSLQSEDFAVYFCQQYNNGFTFGPGTKVDFK
Kd [1]: 2.46 nM | koff [1]: 0.00107 s⁻¹ | kon [1]: 436000 M⁻¹ s⁻¹ | Kd [2]: 2.46 nM

B3: 356-ALE-LS (antibody, human IgG1, kappa)
heavy: QVQLVESGGGVVQPGRSLRLSCAASGFTFRNFGMHWVRQTPGKGLEWVAVIWHDGSNKFYADSVEGRFTISRDNSKNMIYLQMNSLRVEDTAIYYCARDSLFYDHDNSGYYGYWGQGTLVTVSSASTKGPSVFPLAPSSKSTSGGTAALGCLVKDYFPEPVTVSWNSGALTSGVHTFPAVLQSSGLYSLSSVVTVPSSSLGTQTYICNVNHKPSNTKVDKKVEPKSCDKTHTCPPCPAPELLAGPSVFLFPPKPKDTLMISRTPEVTCVVVDVSHEDPEVKFNWYVDGVEVHNAKTKPREEQYNSTYRVVSVLTVLHQDWLNGKEYKCKVSNKALPLPEEKTISKAKGQPREPQVYTLPPSRDELTKNQVSLTCLVKGFYPSDIAVEWESNGQPENNYKTTPPVLDSDGSFFLYSKLTVDKSRWQQGNVFSCSVLHEALHSHYTQKSLSLSPGK
light: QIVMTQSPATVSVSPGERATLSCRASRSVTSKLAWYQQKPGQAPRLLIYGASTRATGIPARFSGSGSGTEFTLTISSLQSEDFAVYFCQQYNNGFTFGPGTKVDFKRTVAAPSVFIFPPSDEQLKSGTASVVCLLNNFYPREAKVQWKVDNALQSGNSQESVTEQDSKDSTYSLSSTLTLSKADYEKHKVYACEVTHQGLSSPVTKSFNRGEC
EC50 in ADCP assay [3]: < 0.001 nM | binding result [4]: no binding (tested: 300 nM)

B4: AB-000356 ALE LS (antibody, human IgG1, kappa)
heavy: B3 heavy
light: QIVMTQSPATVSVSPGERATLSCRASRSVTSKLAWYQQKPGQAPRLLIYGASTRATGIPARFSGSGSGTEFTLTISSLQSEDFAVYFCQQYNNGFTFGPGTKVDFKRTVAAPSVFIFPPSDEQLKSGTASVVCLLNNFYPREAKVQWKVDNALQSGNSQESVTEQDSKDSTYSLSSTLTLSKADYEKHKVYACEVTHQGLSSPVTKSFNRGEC
Kd (human FcγRIIa (H131)): 218 nM and 268 nM | Kd (human FcγRIIb): 3890 nM | Kd (human FcγRIIa (R131)): 675 nM and 766 nM | Kd (human FcγRIIIa (V158)): 73 nM and 144 nM | Kd (human FcγRI): 56 nM and 157 nM | Kd (human FcγRIIIa (F158)): 89 nM and 246 nM | GeoMean EC50 (M), ADCP [5]: 5.03e-13 M | Mean EC50 (pM), ADCP [5]: 0.5 pM | Mean pEC50, ADCP [5]: 12.3 | Kd [6]: 1.58 nM | Kd [7]: 1.1 nM | Geo Mean EC50 (ug/ml), ADNKA, Donor 1 [8]: 0.0052 µg/mL | Geo Mean EC50 (ug/ml), ADNKA, Donor 2 [8]: 0.0035 µg/mL | Geo Mean EC50 (ug/ml), ADNKA, Donor 3 [8]: 0.189 µg/mL | Geo Mean EC50 (ug/ml), ADNKA, Donor 4 [8]: 0.0104 µg/mL | Kd (human FcRn): 52 nM | GeoMean EC50 (M), ADCP repeat, n=4 [9]: 6.45e-13 M | Mean EC50 (pM), ADCP repeat, n=4 [9]: 0.6 pM | Mean pEC50, ADCP repeat, n=4 [9]: 12.2

B5: 356-DEA-FV-LS (antibody, human IgG1, kappa)
heavy: B3 heavy with S246D, T257V, A294F, L337A
light: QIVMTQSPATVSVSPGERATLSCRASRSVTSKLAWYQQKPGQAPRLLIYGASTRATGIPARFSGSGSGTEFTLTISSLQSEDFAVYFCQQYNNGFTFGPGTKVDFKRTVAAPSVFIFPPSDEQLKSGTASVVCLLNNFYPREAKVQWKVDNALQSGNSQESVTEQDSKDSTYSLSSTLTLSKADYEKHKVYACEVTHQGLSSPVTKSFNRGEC
EC50 in ADCP assay [3]: < 0.001 nM | binding result [4]: no binding (tested: 300 nM)

B6: AB001387 (antibody, V domains shown)
VH: QVQLVESGGGVVQPGRSLRLSCAASGFTFSNYGMHWVRQAPGKGLEWVAVIWYDGSNKFYADSVKGRFTSSRDNSKNTLYLQMNSLRAEDTAVYYCARDGRFLTTVTTAYFDYWGQGTLVTVSS
VL: QSVLTQPPSVSGAPGQRVTISCTGSSSNIGAGYDVHWYQQLPGTAPKLLIYGNSNRPSGVPDRFSGSKSGTSASLAITGLQAEDEADYYCQSYDSSLSALVFGGGTKLTVL
Kd [1]: 0.676 nM | koff [1]: 0.00111 s⁻¹ | kon [1]: 1.65e+06 M⁻¹ s⁻¹ | Kd [2]: 0.676 nM

B7: 338-LS (antibody, V domains shown)
VH: QVQLVESGGGVVQPGRSLRLSCAASGFSFSTYGMHWIRQVPGKGLEWVAIIWHDGSKEFYADSVKGRFTISRDNSKKKLYLQMNSLRAEDTAIYYCVKDDFDSSGHSYFHYWGQGTLVTVSS
VL: GVVMTQSPLSLPVTLGQPASISCRSSQSLVHSDGNTYVHWFQQRPGQSPRRLIYKVSNRDSGVPDRFSGSGSGTDFTLKISRVEAEDVGVYYCMQGTQWWTFGQGTKVEIK
binding result [10]: no binding (tested: 300 nM)

B8: 338-ALE-LS (antibody, human IgG1, kappa, V domains shown)
VH: B7 VH
VL: GVVMTQSPLSLPVTLGQPASISCRSSQSLVHSDGNTYVHWFQQRPGQSPRRLIYKVSNRDSGVPDRFSGSGSGTDFTLKISRVEAEDVGVYYCMQGTQWWTFGQGTKVEIKR
binding result [10]: no binding (tested: 300 nM)

B9: AB-000222 (antibody, V domains shown)
VH: QVQLVESGGGVVQPGRSLRLSCAASGFTFSNFGMHWVRQAPGKGLEWVAVIWYDGSKKYYADFVKGRFTISRDNSKYMLYLQMTSLGAEDTAIYYCARDIRGAYRVTDGGFDYWGQGALVTVSS
VL: QFVLTQPPSVSGAPGQRVTISCTGSSFNIGAGYDVHWYQQLPEKAPKLLIYGSTNRASEVPDRFSGSKSGTSASLAITGLQPEDEADYYCQSYDSSLSGYVFGTGTKVTVL
Kd [1]: 0.153 nM and 0.152 nM | koff [1]: 0.00118 s⁻¹ | kon [1]: 7.76e+06 M⁻¹ s⁻¹ | Kd [2]: 0.152 nM
